Reference: PMC6537880 (Analytical chemistry, 2016)

Molecular target: the molecule itself
Experiment: native MS

B1: AAV8 capsid viral protein VP3 (natural protein)
chain: MAAGGGAPMADNNEGADGVGSSSGNWHCDSTWLGDRVITTSTRTWALPTYNNHLYKQISNGTSGGATNDNTYFGYSTPWGYFDFNRFHCHFSPRDWQRLINNNWGFRPKRLSFKLFNIQVKEVTQNEGTKTIANNLTSTIQVFTDSEYQLPYVLGSAHQGCLPPFPADVFMIPQYGYLTLNNGSQAVGRSSFYCLEYFPSQMLRTGNNFQFTYTFEDVPFHSSYAHSQSLDRLMNPLIDQYLYYLSRTQTTGGTANTQTLGFSQGGPNTMANQAKNWLPGPCYRQQRVSTTTGQNNNSNFAWTAGTKYHLNGRNSLANPGIAMATHKDDEERFFPSNGILIFGKQNAARDNADYSDVMLTSEEEIKTTNPVATEEYGIVADNLQQQNTAPQIGTVNSQGALPGMVWQNRDVYLQGPIWAKIPHTDGNFHPSPLMGGFGLKHPPPQILIKNTPVPADPPTTFNQSKLNSFITQYSTGQVSVEIEWELQKENSKRWNPEIQYTSNYYKSTSVDFAVNTEGVYSEPRPIGTRYLTRNL
  binding result: binds
